According to the supplement of paper PMC10126150:
± gives the standard deviation of the averaged measurements.

test system: ATP; assay: switch fluorescence ratio, 500 uM ATP over buffer (Cy3 cluster intensity, sum of 5 cycles each) (fold (ratio)); higher = stronger signal-on switching upon ATP binding; sequences stand for … in TCGTCGGCAGCGTCAGATGTGTATAAGAGACAGTTTTTTTTTTTTTTTTTTTTTTTTT…TC; details: aptamer strand: ATP DNA aptamer (quencher-CACCTGGGGGAGTATTGCGGAGGAAGG + anchor), 100 nM annealed; ATP concentration: 500 uM
How it was run: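 Imaging in selection buffer was followed by imaging after 15 min with 500 uM ATP at 22 °C, for Cy3-labelled switching-strand clusters annealed to 100 nM quencher-labelled ATP aptamer on a modified Illumina MiSeq flow-cell. Five of these buffer/ATP cycles ran, separated by NaOH stripping and re-annealing. The fluorescence ratio per cluster is summed target-cycle over summed buffer-cycle Cy3 intensity, averaged per switch-domain sequence; clusters outside 100-1000 RFU were removed.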
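Also: ATP exposure 15 min at 22 °C before imaging.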

Sequence | switch fluorescence ratio
AGGGATCGG | 1 ± 0.05
AGGGATCGGG | 1.002 ± 0.01
AGGGATCTTT | 0.963 ± 0.038
AGGGATTATT | 1.02 ± 0.016
AGGGCACAGT | 0.995 ± 0.016
AGGGCAGCGT | 1.004 ± 0.0041
AGGGCAGGTA | 1 ± 0.015
AGGGCCGAT | 0.955 ± 0.046
AGGGCCGGGC | 0.962 ± 0.044
AGGGCCGGTA | 1.03 ± 0.026
AGGGCGCCCG | 0.9884 ± 0.0023
AGGGCGGAGT | 0.994 ± 0.022
AGGGCTATGT | 0.9804 ± 0.005
AGGGCTCGGG | 1.012 ± 0.0075
AGGGCTGCAT | 0.9874 ± 0.0035
AGGGCTGCCT | 1.05 ± 0.096
AGGGCTGGGT | 1 ± 0.033
AGGGCTTAGT | 0.995 ± 0.022
AGGGCTTGAA | 0.991 ± 0.018
AGGGCTTGTG | 0.987 ± 0.012
AGGGCTTTTA | 1 ± 0.013
AGGGGAAGAG | 0.994 ± 0.07
AGGGGAAGGT | 0.984 ± 0.021
AGGGGAATAG | 1.01 ± 0.016
AGGGGAATAT | 1.03 ± 0.017
AGGGGAATTT | 0.992 ± 0.03

Sequence | switch fluorescence ratio
AGGGGACTTC | 1.04 ± 0.015
AGGGGAGGGA | 1 ± 0.027
AGGGGATTGC | 0.988 ± 0.019
AGGGGCACTC | 0.992 ± 0.028
AGGGGCAGCT | 0.977 ± 0.024
AGGGGCATTC | 1.03 ± 0.064
AGGGGCCATT | 1.009 ± 0.0098
AGGGGCGAGC | 0.9616 ± 0.005
AGGGGCGGTT | 0.978 ± 0.02
AGGGGGAAGA | 1 ± 0.019
AGGGGGAGGC | 1.01 ± 0.076
AGGGGGCATT | 0.98 ± 0.011
AGGGGGCGAT | 1.01 ± 0.039
AGGGGGCGTT | 1.02 ± 0.042
AGGGGGCTGC | 0.995 ± 0.023
AGGGGGGATA | 1.02 ± 0.074
AGGGGGGCAA | 1.03 ± 0.13
AGGGGGGCAC | 0.984 ± 0.025
AGGGGGGCGG | 0.992 ± 0.039
AGGGGGGGC | 0.991 ± 0.015
AGGGGGGGGA | 1.01 ± 0.05
AGGGGGGTGG | 0.994 ± 0.052
AGGGGGGTGT | 1.03 ± 0.028
AGGGGGGTT | 1.01 ± 0.06
AGGGGGTAAA | 0.975 ± 0.021
AGGGGGTACG | 1.01 ± 0.035

Sequence | switch fluorescence ratio
AGGGGGTAGC | 0.992 ± 0.047
AGGGGGTCGG | 1.01 ± 0.03
AGGGGGTGGC | 0.986 ± 0.048
AGGGGTATAG | 0.995 ± 0.068
AGGGGTATGT | 0.989 ± 0.023
AGGGGTCCTT | 0.997 ± 0.026
AGGGGTCGGC | 0.986 ± 0.016
AGGGGTGCAG | 0.995 ± 0.01
AGGGGTGCTG | 0.975 ± 0.039
AGGGGTGGAA | 0.975 ± 0.022
AGGGGTGTGG | 1.01 ± 0.017
AGGGGTTAAC | 1.04 ± 0.042
AGGGGTTCGG | 0.992 ± 0.026
AGGGGTTTAT | 0.988 ± 0.021
AGGGGTTTCG | 0.994 ± 0.025
AGGGTAATTT | 1.043 ± 0.0063
AGGGTACTGC | 1.02 ± 0.039
AGGGTAGAGC | 1.09 ± 0.15
AGGGTAGATC | 1.03 ± 0.018
AGGGTAGCTT | 0.999 ± 0.031
AGGGTAGGGA | 0.9917 ± 0.004
AGGGTAGGGT | 1.01 ± 0.033
AGGGTAGTCC | 0.986 ± 0.03
AGGGTATCAG | 1.01 ± 0.039
AGGGTATTGT | 1.02 ± 0.075
